In the Immune Epitope Database (IEDB):
pIC50: −log10 of the molar value.

Tests used:
Assay in all cases: IEDB peptide-MHC binding, purified MHC/competitive/radioactivity; ≥ and ≤ were set here for values at or beyond the usual limits of such assays
Settings in all cases: source organism: Bordetella pertussis
[1] = molecular target: HLA-B*44:03
[2] = molecular target: HLA-B*35:01
[3] = molecular target: HLA-B*53:01
[4] = molecular target: HLA-B*07:02
[5] = molecular target: HLA-B*57:01
[6] = molecular target: HLA-A*02:01

In the case of FETYALTGI, the pIC50 [1] was 4.45.
In the case of APPGAGFIY, the pIC50 [2] was 4.78.
For IPFQRALRL, the pIC50 [3] was 5.64.
In the case of ECSGKQDCP, the pIC50 [4] was 4.16.
With VTMRYLASY the pIC50 [2] was 4.45 and the pIC50 [5] was 7.85.
With YDTGDLIAY the pIC50 [2] was 4.16.
AAAEVAGAL was tested, and the pIC50 [4] was 5.21, the pIC50 [2] was 4.16 and the pIC50 [1] was 4.31.
In the case of EHRMQEAVE, the pIC50 [6] was ≤ 4.11.
Work on MEYFKTPLP yielded a pIC50 [1] of 4.55.
VPFCFGKDL showed a pIC50 [4] of 4.92.
In the case of ESAEGRKIF, the pIC50 [1] was 4.44 and the pIC50 [5] was ≤ 4.15.
In the case of AGKSLKKKN, the pIC50 [6] was ≤ 4.11.
With VAAAADLAL the pIC50 [3] was 4.66.
Work on IVIPPKALF yielded a pIC50 [5] of 4.34.
